US20240352121A1, “LAIR-1 AGONISTIC ANTIBODIES AND METHODS OF USE THEREOF” (NEXTCURE, INC., priority 2023, published 2024)

Columns and labels:
Type in all cases: cell-based, human
SHP-1 = SHP-1 phosphorylation in primary patient AML blasts (Western blot)
Protocol: FIGS. 4A-4O show the collagen matrix is vital to LAIR-1 induced AML cell death. (FIGS. 4A-C). Flow cytometry quantification of primary live, dead, or apoptotic total blood leukocytes after ex vivo treatment with 10 μg/mL IgG isotype control (gray) or LAIR-1 mAb (red) in the presence (FIG. 4A) or absence (FIG. 4B) of exogenous collagen, or (FIG. 4C), CD451^Lo SSC^Lo blast cells in the presence of isotype control or LAIR-1 mAb. N=3 technical replicates. […] Each dot represents an individual donor. Red shading highlights surface expression >20000 arbitrary units. Blue shading highlights expression <20000 units. Line represents simple linear regression. […] N=4-7 donors. […] Mean pixel density from Western blotting normalized to isotype control condition and graphed relative to total SHP-1. N=3 technical replicates. […] FIGS. 4M and 4N) 4E-BP1 expression as measured by Lumit assay (FIG. 4M) or cleaved caspase-7 as measured by Western blot (FIG. 4N) of cells treated as shown in FIGS. 4I-4K. […] P values calculated by Student's t test. […]
For assessment of signaling in healthy cells, human monocytes were isolated from PBMCs from two donors using a StemCell monocyte isolation kit (StemCell, Vancouver, BC). […] Data were quantified using FIJI (NIH, MD).

[1] = system: healthy T cells or NK cells; assay: Ex vivo killing of T cells or NK cells of a VEN/AZA-treated AML patient; details: same patient sample
Protocol: Ex vivo killing of VEN/AZA-treated AML patient leukemic cells (FIG. 7A) or T cells or NK cells (FIG. 7B). Values normalized to vehicle control. Lines represent linear regression of NC525 concentration versus normalized cell killing. […] FIGS. 7D and 7E show in vivo leukemic growth as measured by whole-body luminescence of MV4-11-luciferase cells (FIG. 7D) or survival (FIG. 7E) of CDX mice treated with 10 mg/kg isotype control (gray) or NC525 (red) or 100 mg/kg VEN (pink) or 0.5 mg/kg AZA (blue) or combination therapy (green or yellow, respectively). BLoD, below limit of detection. n=9 mice per group. P values determined by 2-way ANOVA or log-rank (Mantel-Cox) test, respectively. FIGS. 7F and 7G show leukemic growth in the blood (FIG. 7F) and in the spleen and BM (FIG. 7G) at week 8 after transplant of AML PDX mice treated with vehicle (gray), VEN/AZA (blue), NC525 (red), or VEN/AZA plus NC525 (green). n=5-10 mice per group. AML cells in spleen and BM compared from 4-5 mice per group. Data are shown as the mean±SEM. P values determined by 2-way ANOVA or 1-way ANOVA with multiple comparisons.

[2] = system: AML patient bone-marrow cells (LSCs); assay: Colony forming unit assay, AML patient bone-marrow; details: titrated concentrations, dose-response; vs isotype or vehicle
Protocol: Cryopreserved AML bone-marrow cells or healthy donor CD34 cells were thawed and plated in 96 wells plates. Cells were engaged with the indicated concentrations of LAIR-1 mAb or isotype control for 30 min at room temperature. Subsequently, cells were diluted in IMDM with 2% FBS and mixed with semisolid methylcellulose-based medium (MethoCult H4435 Enriched, StemCell Technologies, Vancouver, Canada) which contains human cytokines (stem cell factor, IL-3, IL-6, EPO, G-CSF, GM-CSF). Then, between 1e4 and 2.5e5 LSCs, or, between 1e3 and 5e3 healthy donor CD34 cells per well were plated on 6-well SmartDishes (StemCell Technologies, Vancouver, Canada). The cell-loaded plates were incubated at 37° C. with 5% CO2 in air and ≥95% humidity. On day 14, colony formation was counted by STEMvision (StemCell Technologies, Vancouver, Canada), an automated and standardized colony counting instrument. The automated results were confirmed and edited manually by the STEMvision Colony Marker software.

AML PBMCs = assay: ADCC assay, AML patient PBMCs with healthy donor NK cells; details: 3:1 Target:Effector ratio, 4 hours
Protocol: ADCC was measured using the CytoTox 96® Non-Radioactive Cytotoxicity Assay (Promega) following the manufacturer's instructions. Briefly, AML patient PBMCs were mixed with healthy donor NK cells at a 3:1 Target:Effector ratio in complete RPMI containing the indicated concentration of soluble h11B3 or Fc-G1 isotype control. Mixed cells were incubated for 4 hours at 37 deg C. Test wells were run in quadruplicate. AML PBMCs-Donor #200018616, newly diagnosed/untreated. NK cells-Healthy Donor #83, isolated from PBMCs via StemCell Kit #17955 following manufacturer's instructions. CytoTox 96® Non-Radioactive Cytotoxicity Assay Promega Cat #G1780. % Cytotoxicity quantified by target cell LDH release. % Cytotoxicity=((Test Well LDH Release−Effector Cell Spontaneous Release−Target Cell Spontaneous Release)/(Target Cell Max Release−Target Cell Spontaneous Release))*100. Target Cells=AML PBMCs Donor #200018616; Effector Cells=NK cells isolated from healthy Donor #83 PBMCs. […] ADCC was measured using the Toxilight Bioluminescent Cytotoxicity Assay (Lonza)) following the manufacturer's instructions. […] Toxilight Bioluminescent Cytotoxicity Assay kit Lonza Cat #LT17-217. % Cytotoxicity quantified by target cell adenylate kinase release; ADCC calculated as described above. […]

B1: LAIR-1 mAb: humanized agonist anti-LAIR-1 mAb, IgG1 backbone; h11B3 VL-2 (SEQ ID NO: 16), h11B3 VH-3 (SEQ ID NO: 27) (antibody, V domains shown)
VH: EVQLVESGGGLVQPGGSLKLSCAASGFTFNTNAMYWVRQAPGKGLEWVGRIRSKSSNYATYYAASVKGRFTISRDDSKNTLYLQMNSLKTEDTAVYYCVRGGSGFFAYWGQGTLVTVSS
VL: DIQMTQSPSSLSASLGDRVTITCKASEDIYIRLAWYQQKPGKAPRLLISTATSLETGVPSRFSGSGSGTDYTFTISSLQPEDIATYYCQQYWSTPYTFGGGTRLEIK
modifications: IgG1 constant regions; Synthetic: h11B3 VH-3; Synthetic: h11B3 VL-2
SHP-1; LAIR-1 mAb alone
  increase of SHP-1 phosphorylation relative to control: 25%
SHP-1; cotreatment with LAIR-1 mAb and collagen
  increase of SHP-1 phosphorylation relative to control: 50%
[1]
  impact on healthy T cells or NK cells: no impact
[2]
  CFU formation: significantly decreased
AML PBMCs
  ADCC: induces AML cell death through antibody dependent cytotoxicity (ADCC)
